{
  "source": "paper PMC9701214",
  "about": "“Orthogonal glycolytic pathway enables directed evolution of noncanonical cofactor oxidase” (Nature Communications, 2022)",
  "key": {"XenA": {"target": "T1, XenA (Pseudomonas putida, UniProt Q9R9V9)", "T1 construct": "purified recombinant enzyme (plasmid pEK102 carries XenA WT)", "T1 sequence (Q9R9V9 entry or part of it)": "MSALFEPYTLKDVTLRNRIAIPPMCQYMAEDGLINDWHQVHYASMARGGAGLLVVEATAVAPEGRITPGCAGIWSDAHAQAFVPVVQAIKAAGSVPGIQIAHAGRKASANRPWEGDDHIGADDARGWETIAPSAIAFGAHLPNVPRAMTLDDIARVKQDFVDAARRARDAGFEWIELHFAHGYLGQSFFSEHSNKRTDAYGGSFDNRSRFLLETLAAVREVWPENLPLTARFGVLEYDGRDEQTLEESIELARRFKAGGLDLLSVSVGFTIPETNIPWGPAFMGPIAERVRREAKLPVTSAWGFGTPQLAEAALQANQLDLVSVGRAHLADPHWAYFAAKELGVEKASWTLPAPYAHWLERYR", "assay": "specific activity, absorbance at […] nm", "format": "biochemical", "details": "0.2 mM reduced cofactor, 5 mM ketoisophorone, 200 mM potassium phosphate pH 7.5, 37 °C"}, "purified protein [1]": {"substrate": "NC(=O)C1=CN([C@@H]2O[C@H](COP(=O)(O)OP(=O)(O)OC[C@H]3O[C@@H](n4cnc5c(N)ncnc54)[C@H](O)[C@@H]3O)[C@@H](O)[C@H]2O)C=CC1", "assay": "purified protein", "format": "biochemical, Lactiplantibacillus pentosus", "details": "50 mM Tris-HCl pH 7.0, 37 °C, apparent"}, "purified protein [2]": {"substrate": "NC(=O)C1=CN([C@@H]2O[C@H](COP(=O)(O)OP(=O)(O)OC[C@H]3O[C@@H](n4cnc5c(N)ncnc54)[C@H](OP(=O)(O)O)[C@@H]3O)[C@@H](O)[C@H]2O)C=CC1", "assay": "purified protein", "format": "biochemical, Lactiplantibacillus pentosus", "details": "50 mM Tris-HCl pH 7.0, 37 °C, apparent"}},
  "data": [
    {"molecule": "NC(=O)C1=CN([C@@H]2O[C@H](COP(=O)(O)O)[C@@H](O)[C@H]2O)C=CC1", "note": "[NMNH]", "values": [
      {"measurement": "specific activity, absorbance at 340 nm", "setting": "XenA", "value": "Specific activities of redox partners toward NMNH."}
    ]},
    {"molecule": "Lp Nox (Lactiplantibacillus pentosus; D177W/G178E/I158S/V240L) (protein, recombinant from E. coli BL21(DE3), pQElac vector (pLS504), purified on His-Spin column (His-tag implied); FAD added at lysis) MKVIVIGCTHAGTAAVNQILASNPETDVTIYERNDNVSFLSCGIALYLGGEVADPQGLFYSSPEQLAKLGANVHMQHDVTDVDTENHEITVTDLKTGESKKDYYDKLVVTTGSWPVIPPIDGIDSPNVYLCKNWTHAQSLWEAAKPAKRVIVIGGGYSGTELVEAYQKQGKEVTLIWELPRILNKYLDKGFTDRVEKDFVDHGIKMALNQMVKGFSDDGKEVTVKTDKGSYTADMAILCLGFRPNTSLLKGKVDMNPNGSIKTNDYMQTSDPDIYGAGDSVAVHYNPTKKDAYIPLATNAVRQGTLVGLNIFKPTRKYMGTQSTSGLMLFGKTIVSSGMTLEHAQAEKVPAEAVTFEDNYRPEFMPTTKPVLMQLVYNPETREILGAQFMSEHDVSQSANVISVMIQNHNTIDDLGFVDMFFQPIYDRPFNYLNLLGQAAIAHAAEKVTE", "values": [
      {"measurement": "Km", "setting": "purified protein [1]", "value": "1900 ± 40", "unit": "µM"},
      {"measurement": "kcat", "setting": "purified protein [1]", "value": "31 ± 1", "unit": "s⁻¹"},
      {"measurement": "kcat/Km", "setting": "purified protein [1]", "value": "17000 ± 200", "unit": "M⁻¹ s⁻¹"},
      {"measurement": "Km", "setting": "purified protein [2]", "value": "1100 ± 100", "unit": "µM"},
      {"measurement": "kcat", "setting": "purified protein [2]", "value": "28 ± 1", "unit": "s⁻¹"},
      {"measurement": "kcat/Km", "setting": "purified protein [2]", "value": "26000 ± 1000", "unit": "M⁻¹ s⁻¹"}
    ]},
    {"molecule": "Lp Nox (Lactiplantibacillus pentosus) (protein, recombinant from E. coli BL21(DE3), pQElac vector (pLS504), purified on His-Spin column (His-tag implied); FAD added at lysis) MKVIVIGCTHAGTAAVNQILASNPETDVTIYERNDNVSFLSCGIALYLGGEVADPQGLFYSSPEQLAKLGANVHMQHDVTDVDTENHEITVTDLKTGESKKDYYDKLVVTTGSWPVIPPIDGIDSPNVYLCKNWTHAQSLWEAAKPAKRVIVIGGGYIGTELVEAYQKQGKEVTLIDGLPRILNKYLDKGFTDRVEKDFVDHGIKMALNQMVKGFSDDGKEVTVKTDKGSYTADMAILCVGFRPNTSLLKGKVDMNPNGSIKTNDYMQTSDPDIYGAGDSVAVHYNPTKKDAYIPLATNAVRQGTLVGLNIFKPTRKYMGTQSTSGLMLFGKTIVSSGMTLEHAQAEKVPAEAVTFEDNYRPEFMPTTKPVLMQLVYNPETREILGAQFMSEHDVSQSANVISVMIQNHNTIDDLGFVDMFFQPIYDRPFNYLNLLGQAAIAHAAEKVTE", "values": [
      {"measurement": "Km", "setting": "purified protein [1]", "value": "25 ± 1", "unit": "µM"},
      {"measurement": "kcat", "setting": "purified protein [1]", "value": "21 ± 0.3", "unit": "s⁻¹"},
      {"measurement": "kcat/Km", "setting": "purified protein [1]", "value": "840000 ± 10000", "unit": "M⁻¹ s⁻¹"},
      {"measurement": "Km", "setting": "purified protein [2]", "value": "1900 ± 200", "unit": "µM"},
      {"measurement": "kcat", "setting": "purified protein [2]", "value": "18 ± 2", "unit": "s⁻¹"},
      {"measurement": "kcat/Km", "setting": "purified protein [2]", "value": "9300 ± 200", "unit": "M⁻¹ s⁻¹"}
    ]},
    {"molecule": "Lp Nox (Lactiplantibacillus pentosus; D177W/I158S/V240L) (protein, recombinant from E. coli BL21(DE3), pQElac vector (pLS504), purified on His-Spin column (His-tag implied); FAD added at lysis) MKVIVIGCTHAGTAAVNQILASNPETDVTIYERNDNVSFLSCGIALYLGGEVADPQGLFYSSPEQLAKLGANVHMQHDVTDVDTENHEITVTDLKTGESKKDYYDKLVVTTGSWPVIPPIDGIDSPNVYLCKNWTHAQSLWEAAKPAKRVIVIGGGYSGTELVEAYQKQGKEVTLIWGLPRILNKYLDKGFTDRVEKDFVDHGIKMALNQMVKGFSDDGKEVTVKTDKGSYTADMAILCLGFRPNTSLLKGKVDMNPNGSIKTNDYMQTSDPDIYGAGDSVAVHYNPTKKDAYIPLATNAVRQGTLVGLNIFKPTRKYMGTQSTSGLMLFGKTIVSSGMTLEHAQAEKVPAEAVTFEDNYRPEFMPTTKPVLMQLVYNPETREILGAQFMSEHDVSQSANVISVMIQNHNTIDDLGFVDMFFQPIYDRPFNYLNLLGQAAIAHAAEKVTE", "values": [
      {"measurement": "Km", "setting": "purified protein [1]", "value": "1700 ± 200", "unit": "µM"},
      {"measurement": "kcat", "setting": "purified protein [1]", "value": "47 ± 4", "unit": "s⁻¹"},
      {"measurement": "kcat/Km", "setting": "purified protein [1]", "value": "28000 ± 1000", "unit": "M⁻¹ s⁻¹"},
      {"measurement": "Km", "setting": "purified protein [2]", "value": "890 ± 40", "unit": "µM"},
      {"measurement": "kcat", "setting": "purified protein [2]", "value": "27 ± 2", "unit": "s⁻¹"},
      {"measurement": "kcat/Km", "setting": "purified protein [2]", "value": "31000 ± 1000", "unit": "M⁻¹ s⁻¹"}
    ]}
  ]
}
